Measurements: US20220315926
Where two headings read alike, the source gives them in different places.

What was measured:
[1] = target: T1, DEN4-NS1 (Dominica/814669/1981) (Dengue virus 4) (UniProt P09866); experiment: SPR
T1 sequence: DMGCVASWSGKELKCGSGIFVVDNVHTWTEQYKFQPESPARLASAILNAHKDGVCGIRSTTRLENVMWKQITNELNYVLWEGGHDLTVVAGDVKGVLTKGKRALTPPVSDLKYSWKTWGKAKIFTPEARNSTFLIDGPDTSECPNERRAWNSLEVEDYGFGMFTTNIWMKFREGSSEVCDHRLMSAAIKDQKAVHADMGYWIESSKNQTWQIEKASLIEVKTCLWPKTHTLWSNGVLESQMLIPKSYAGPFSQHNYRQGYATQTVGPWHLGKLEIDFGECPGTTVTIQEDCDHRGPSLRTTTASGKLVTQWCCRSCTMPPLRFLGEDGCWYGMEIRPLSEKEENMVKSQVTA

[2] = target: T2, DEN2-NS1 (Thailand/16681/84) (Dengue virus 2) (UniProt P29990); experiment: SPR
T2 sequence: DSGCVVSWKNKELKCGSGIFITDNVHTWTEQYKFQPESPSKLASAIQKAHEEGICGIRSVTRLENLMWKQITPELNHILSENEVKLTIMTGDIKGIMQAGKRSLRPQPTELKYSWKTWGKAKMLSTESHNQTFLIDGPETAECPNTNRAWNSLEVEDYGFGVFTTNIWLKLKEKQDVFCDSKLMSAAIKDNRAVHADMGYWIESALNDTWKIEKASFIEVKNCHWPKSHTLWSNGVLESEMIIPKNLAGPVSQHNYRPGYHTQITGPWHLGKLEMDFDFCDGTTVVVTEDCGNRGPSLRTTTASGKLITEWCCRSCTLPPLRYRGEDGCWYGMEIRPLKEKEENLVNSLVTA

[3] = target: T3, DEN3-NS1 (Sri Lanka D3/H/IMTSSA-SRI/2000/1266) (Dengue virus 3) (UniProt Q6YMS4); experiment: SPR; conditions: Ds at both n; biotin-dT in 3' mini-hairpin
T3 sequence: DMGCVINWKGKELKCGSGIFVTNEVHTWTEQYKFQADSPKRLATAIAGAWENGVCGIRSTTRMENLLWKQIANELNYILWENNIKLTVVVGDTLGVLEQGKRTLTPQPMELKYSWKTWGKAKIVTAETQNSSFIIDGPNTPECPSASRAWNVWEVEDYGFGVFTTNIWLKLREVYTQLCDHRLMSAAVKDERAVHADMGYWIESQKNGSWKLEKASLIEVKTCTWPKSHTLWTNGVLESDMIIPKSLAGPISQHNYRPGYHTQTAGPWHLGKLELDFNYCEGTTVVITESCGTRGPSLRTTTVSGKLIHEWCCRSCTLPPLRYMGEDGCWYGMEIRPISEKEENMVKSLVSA

[4] = target: T2, DEN2-NS1 (Thailand/16681/84) (Dengue virus 2); experiment: EMSA
[5] = target: SIN DEN1-NS1 (Singaporean variant, 96.3% homology) (Dengue virus 1) (UniProt P33478); experiment: SPR; conditions: Ds at both x, 25 C, 150 mM NaCl, 1 mM MgCl2
[6] = target: T4, DEN1-NS1 (Nauru/Western Pacific/1974) (Dengue virus 1) (UniProt P17763); experiment: SPR; conditions: Ds unnatural base at both n; biotin-dT in 3' mini-hairpin CGCG(L)AGCG
T4 sequence: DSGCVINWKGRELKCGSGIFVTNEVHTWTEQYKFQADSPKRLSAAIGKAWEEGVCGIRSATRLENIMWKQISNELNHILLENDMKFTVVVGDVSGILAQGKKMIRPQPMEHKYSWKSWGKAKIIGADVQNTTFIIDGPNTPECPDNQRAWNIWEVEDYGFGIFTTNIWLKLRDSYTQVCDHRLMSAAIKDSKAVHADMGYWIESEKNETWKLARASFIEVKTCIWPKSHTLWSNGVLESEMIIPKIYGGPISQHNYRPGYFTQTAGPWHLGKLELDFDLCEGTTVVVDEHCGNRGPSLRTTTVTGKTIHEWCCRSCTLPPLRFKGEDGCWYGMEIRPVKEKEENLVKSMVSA

[7] = target: T1, DEN4-NS1 (Dominica/814669/1981) (Dengue virus 4); experiment: EMSA; conditions: Ds at both x; 5' biotin-dT; 2 M urea gel
[8] = Ds at both n, biotin-dT in 3' mini-hairpin
[9] = two Ds and one diol-Pa, biotin-dT in 3' mini-hairpin

CGGCGGAGACGTAACGCNTATCAAATCNAAACAGCTTAGGGTCCGCCGCGCGTAGCG [D4-3-57h (AptD4)]
Kd [1, 8]: 0.03 nM

GACGGTCTACTGGTCCGNCTGGGAACAAGNGGCGGGAGGGANGGGTGTGGGTGCGACAAGCGGAGTAGTTAGACCGTCCGCGTAGCG [D2-1d-87h]
Kd [2, 9]: 0.105 nM

CCGCTTGTCATCTANCCTGGCCNTGTGGTACTGTAACGGCTGACAAGCGGCGCGTAGCG [D3-2-59h (AptD3)]
Kd [3]: 0.057 nM

GGCTGGTCCGNCTGGGAACAAGNGGCGGGAGGGANGGGTGTGGGTGCGACAAGCGGACCAGCCCGCGTAGCG [AptD2e (Cont-D2, natural-base variant)]
binding signal [4]: < 10 % shifted

GGTCCGNCTGGGAACAAGNGGCGGGAGGGANGGGTGTGGGTGCGACAAGCGGCGCGTAGCG [D2-1d-61h]
binding signal [4, 9]: > 60 % shifted

GCACTCCATGATATGGTCTACTGAGCGAGACGATGCTGCTAAANTACGCCGTGGTNACGAAGACAGACAAGCGGAGTGTCGCGTAGCG [19D1F1-3]
Kd ([5]; biotin-dT in 3' mini-hairpin): 0.027 nM

CTCCGCTGTCAAACGGNTATCACGGCNACACACCTGCGGACAGCGGAGCGCGTAGCG [D4-1-57h]
Kd [1, 8]: 0.029 nM

CCCCAGACGGACTGGTGTNCTCGGNATGGCCGTCTGGGGCGCGTAGCG [D1-1-48h (AptD1)]
Kd [6]: 0.182 nM

TGATATGGTCTACTGTCTCAACGGTTGTCAAACGGNTATCACGGCNACACACCTGCGGACAAGCGGAGTAGTTAGACC [D4-1-78]
Kd ([1]; Ds at both x, 5' biotin-dT): 0.062 nM

TTTTCGCACTCCATGATATGGTCTACTGAGCGAGACGATGCTGCTAAANTACGCCGTGGTNACGAAGACAGACAAGCGGAGTAGTTAGACCGTGAAA [19D1F1 (isolate, AptD1b)]
Kd ([5]; 5' biotin): 0.0091 nM

GGCTGGTCCGNCTGGGAACAAGNGGCGGGAGGGANGGGTGTGGGTGCGACAAGCGGACCAGCCCGCGTAGCG [D2-1d-72h-d]
binding signal ([4]; Ds at 11 and 23, biotin-dT in 3' mini-hairpin): < 10 % shifted

TTTTCGCACTCCATGATATGGTCTACTGGTCCGNCTGGGAACAAGNGGCGGGAGGGANGGGTGTGGGTGCGACAAGCGGAGTAGTTAGACCGTCAAA [D2-1-96(3Ds)]
binding signal ([4]; three Ds): < 10 % shifted

GGCTGGTCCGACTGGGAACAAGNGGCGGGAGGGANGGGTGTGGGTGCGACAAGCGGACCAGCCCGCGTAGCG [D2-1d-72h(A) (D2-1d-72h-b)]
binding signal ([4]; Ds at position 23, diol-Pa at position 35, biotin-dT in 3' mini-hairpin): > 40 % shifted

TGATATGGTCTACTGTATAATCCGCNTTCGTCATGTGGNTTGGATCTGGGTCTGGCAGACAAGCGGAGTAGTTAGACC [D4-4-78]
binding signal [7]: > 60 % shifted

GGCTGGTCCGNCTGGGAACAAGNGGCGGGAGGGANGGGTGTGGGTGCGACAAGCGGACCAGCCCGCGTAGCG [D2-1d-72h-c]
binding signal ([4]; Ds at 11, diol-Pa at 35, biotin-dT in 3' mini-hairpin): < 10 % shifted

TGATATGGTCTACTGTGGCGCGAGGGAATCNACGCNTATCAAATANAAACAGCTAATGACAAGCGGAGTAGTTAGACC [D4-3-78]
Kd ([1]; Ds at x (three), 5' biotin-dT): 0.034 nM

TTTTCGCACTCCATGATATGGTCTACTGGTCCGNCTGGGAACAAGNGGCGGGAGGGANGGGTGTGGGTGCGACAAGCGGAGTAGTTAGACCGTCAAA [D2-1y-96]
Kd ([2]; two Ds and one diol-Px, 5' biotin): 0.041 nM

GGCTGGTCCGNCTGGGAACAAGNGGCGGGAGGGANGGGTGTGGGTGCGACAAGCGGACCAGCCCGCGTAGCG [D2-1d-72h (AptD2)]
Kd ([2]; Ds at positions 11 and 23, diol-Pa at position 35, biotin-dT in 3' mini-hairpin): 0.104 nM

TGATATGGTCTACTGTCACANATCGCCGTAAAGNCGAAGAGCTGCGGAATCTAAGGTGACAAGCGGAGTAGTTAGACC [D4-2-78]
binding signal [7]: > 60 % shifted
